PMC5260909

Columns and labels:
[1] = biological target: NMDAR of rat GluN1-1b WT with WT GluN2A, on transfected HEK-293 cells (rat) (UniProt Q00959)
[2] = biological target: Endogenous NMDAR (GluN1 subunit) of mouse cortical neurons and mouse brain (mouse (endogenous in cortical neurons of Swiss mice)) (UniProt P35438)
[3] = biological target: NMDAR of rat GluN1-1b WT with WT GluN2A, on transfected HEK-293 cells (rat) (UniProt Q00959); remark: listed apart in the source

UniProt Q00959, sequence (Q00959 whole entry, looked up): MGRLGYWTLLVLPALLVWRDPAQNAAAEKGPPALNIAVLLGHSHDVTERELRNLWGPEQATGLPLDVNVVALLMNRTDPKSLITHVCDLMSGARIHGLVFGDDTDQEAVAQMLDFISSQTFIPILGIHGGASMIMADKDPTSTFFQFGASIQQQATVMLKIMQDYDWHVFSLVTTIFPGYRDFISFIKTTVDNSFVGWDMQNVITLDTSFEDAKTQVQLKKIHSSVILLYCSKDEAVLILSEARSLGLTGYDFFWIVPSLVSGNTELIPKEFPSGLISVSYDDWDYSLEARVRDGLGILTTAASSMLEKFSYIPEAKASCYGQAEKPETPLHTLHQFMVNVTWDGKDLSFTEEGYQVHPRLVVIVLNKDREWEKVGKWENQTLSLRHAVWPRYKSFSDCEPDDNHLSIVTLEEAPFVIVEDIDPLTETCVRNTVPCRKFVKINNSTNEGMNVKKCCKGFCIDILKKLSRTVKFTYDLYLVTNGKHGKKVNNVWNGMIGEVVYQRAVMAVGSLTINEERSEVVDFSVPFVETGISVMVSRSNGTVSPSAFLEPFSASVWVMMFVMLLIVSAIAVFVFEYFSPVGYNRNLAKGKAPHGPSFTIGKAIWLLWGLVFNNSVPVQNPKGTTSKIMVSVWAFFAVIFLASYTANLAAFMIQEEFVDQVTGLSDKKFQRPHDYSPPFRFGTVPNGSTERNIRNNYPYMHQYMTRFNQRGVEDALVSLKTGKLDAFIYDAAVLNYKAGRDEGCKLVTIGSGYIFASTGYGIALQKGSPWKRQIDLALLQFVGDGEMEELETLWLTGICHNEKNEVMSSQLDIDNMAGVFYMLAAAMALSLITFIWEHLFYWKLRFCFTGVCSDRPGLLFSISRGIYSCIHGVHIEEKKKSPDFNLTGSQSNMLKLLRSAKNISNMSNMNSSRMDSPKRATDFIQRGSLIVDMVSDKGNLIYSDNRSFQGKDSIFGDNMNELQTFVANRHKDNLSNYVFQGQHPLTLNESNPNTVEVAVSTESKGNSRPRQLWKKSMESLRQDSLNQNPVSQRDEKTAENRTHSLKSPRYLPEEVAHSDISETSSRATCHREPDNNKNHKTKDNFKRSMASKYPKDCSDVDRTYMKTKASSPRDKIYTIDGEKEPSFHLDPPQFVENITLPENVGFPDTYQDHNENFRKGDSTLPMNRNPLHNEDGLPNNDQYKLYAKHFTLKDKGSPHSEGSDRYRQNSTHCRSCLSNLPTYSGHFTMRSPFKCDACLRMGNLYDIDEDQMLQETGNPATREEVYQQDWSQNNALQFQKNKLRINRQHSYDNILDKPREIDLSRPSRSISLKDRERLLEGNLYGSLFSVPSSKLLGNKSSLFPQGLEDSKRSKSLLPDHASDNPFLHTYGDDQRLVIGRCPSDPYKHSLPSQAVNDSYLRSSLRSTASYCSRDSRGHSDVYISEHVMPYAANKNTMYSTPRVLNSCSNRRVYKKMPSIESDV

## Human tissue-type plasminogen activator (tPA, Actilyse) (enzyme)
[1]
  NMDA-induced calcium influx (Fura-2 video imaging) in HEK-293 cells transfected with GluN1-1b WT and GluN2A; potentiation after 20 min with tPA 300 nM (% of potentiation): 27
[2]
  NMDA-induced calcium influx (Fura-2 video imaging) in primary cultures of mouse cortical neurons; potentiation after 45 min with tPA 300 nM: 31%
  NMDA-induced calcium influx in primary cultures of mouse cortical neurons; tPA 300 nM together with the antibody of clone 6C9B6 10 μg/ml (% of potentiation): 38

## WT rat tissue-type plasminogen activator (tPA WT), expressed in HEK-293 cells (from UniProt P19637 33-559) (enzyme)
[3]
  NMDA-induced calcium influx in HEK-293 cells transfected with GluN1-1b WT, GluN2A and tPA WT; change after 20 min with the antibody Glunomab 10 μg/ml (% of potentiation): -18
